Results published in patent US20240190987A1 (TIGATX, published 2024).

B1: Ab0936 (antibody, V domains shown)
VH: EVQLVESGGGLVQPGGSLRLSCAASGFDFSSYSIHWVRQAPGKGLEWVAAISPYYGSTYYADSVKGRFTISADTSKNTAYLQMNSLRAEDTAVYYCARYYEWYKYDLYLGSLGFDYWGQGTLVTVSS
VL: DIQMTQSPSSLSASVGDRVTITCRASQSVSSAVAWYQQKPGKAPKLLIYSASSLYSGVPSRFSGSRSGTDFTLTISSLQPEDFATYYCQQGGYSLITFGQGTKVEIK
notes: also called LS2B R6M2
B2: Ab0953 (antibody, V domains shown)
VH: EVQLVESGGGLVQPGGSLRLSCAASGFDFSSYSIHWVRQAPGKGLEWVASISPYYGSTYYADSVKGRFTISADTSKNTAYLQMNSLRAEDTAVYYCARYYEWYKYDLYLGSLGFDYWGQGTLVTVSS
VL: DIQMTQSPSSLSASVGDRVTITCRASQSVSSAVAWYQQKPGKAPKLLIYSASSLYSGVPSRFSGSRSGTDFTLTISSLQPEDFATYYCQQGAYSLITFGQGTKVEIK
notes: also called LS2B R6M22
B3: Ab0941 (antibody, V domains shown)
VH: EVQLVESGGGLVQPGGSLRLSCAASGFDFSSYSIHWVRQAPGKGLEWVASISPYYGATYYADSVKGRFTISADTSKNTAYLQMNSLRAEDTAVYYCARYYEWYKYDLYLGSLGFDYWGQGTLVTVSS
VL: DIQMTQSPSSLSASVGDRVTITCRASQSVSSAVAWYQQKPGKAPKLLIYSASSLYSGVPSRFSGSRSGTDFTLTISSLQPEDFATYYCQQGGYSLITFGQGTKVEIK
notes: also called LS2B R6M7
B4: Ab0939 (antibody, V domains shown)
VH: EVQLVESGGGLVQPGGSLRLSCAASGFDFSSYSIHWVRQAPGKGLEWVASISAYYGSTYYADSVKGRFTISADTSKNTAYLQMNSLRAEDTAVYYCARYYEWYKYDLYLGSLGFDYWGQGTLVTVSS
VL: DIQMTQSPSSLSASVGDRVTITCRASQSVSSAVAWYQQKPGKAPKLLIYSASSLYSGVPSRFSGSRSGTDFTLTISSLQPEDFATYYCQQGGYSLITFGQGTKVEIK
notes: also called LS2B R6M5
B5: Ab0937 (antibody, V domains shown)
VH: EVQLVESGGGLVQPGGSLRLSCAASGFDFSSYSIHWVRQAPGKGLEWVASASPYYGSTYYADSVKGRFTISADTSKNTAYLQMNSLRAEDTAVYYCARYYEWYKYDLYLGSLGFDYWGQGTLVTVSS
VL: DIQMTQSPSSLSASVGDRVTITCRASQSVSSAVAWYQQKPGKAPKLLIYSASSLYSGVPSRFSGSRSGTDFTLTISSLQPEDFATYYCQQGGYSLITFGQGTKVEIK
notes: also called LS2B R6M3
B6: Ab0944 (antibody, V domains shown)
VH: EVQLVESGGGLVQPGGSLRLSCAASGFDFSSYSIHWVRQAPGKGLEWVASISPYYGSTYYADSVKGRFTISADTSKNTAYLQMNSLRAEDTAVYYCARYYEWYKYALYLGSLGFDYWGQGTLVTVSS
VL: DIQMTQSPSSLSASVGDRVTITCRASQSVSSAVAWYQQKPGKAPKLLIYSASSLYSGVPSRFSGSRSGTDFTLTISSLQPEDFATYYCQQGGYSLITFGQGTKVEIK
notes: also called LS2B R6M10
B7: Ab0958 (antibody, V domains shown)
VH: EVQLVESGGGLVQPGGSLRLSCAASGFDFSSYSIHWVRQAPGKGLEWVASISPYYGSTYYADSVKGRFTISADTSKNTAYLQMNSLRAEDTAVYYCARYYEWYKYDLYLGSLGFDYWGQGTLVTVSS
VL: DIQMTQSPSSLSASVGDRVTITCRASQSVSSAVAWYQQKPGKAPKLLIYSASSLYSGVPSRFSGSRSGTDFTLTISSLQPEDFATYYCQQGGYSLIAFGQGTKVEIK
notes: also called LS2B R6M27
B8: Ab1071 (Fab, V domains shown)
VH: EVQLVESGGGLVQPGGSLRLSCAASGFDFSSYSIHWVRQAPGKGLEWVASISPYYGSTYYADSVKGRFTISADTSKNTAYLQMNSLRAEDTAVYYCARYYEWYKYDLYAGSLGFDYWGQGTLVTVSS
VL: DIQMTQSPSSLSASVGDRVTITCRASQSVSSAVAWYQQKPGKAPKLLIYSASSLYSGVPSRFSGSRSGTDFTLTISSLQPEDFATYYCQQGGYSLITFGQGTKVEIK
notes: also called LS2B R5M2 Fab

These binders were tested against T1, Ab0787 (assay: BLI 5-pt +indinavir).
T1 construct: Fab, His-Tag, Avi-Tag; Ab0785 + HC I50M; also called LS2A R3M2; Ab787

Which Kd does the source give for B1 here?
The Kd was 1 nM.

Each binder was assayed against T1, Ab0787 (assay: BLI 1-pt +indinavir).

How did the Kd turn out when B1 was run?
The Kd was 5.7 nM.

For B2, which Kd is on record?
The Kd was 50 nM.

How did the Kd turn out when B3 was run?
The Kd was 49 nM.

For B4, which Kd is on record?
Its Kd is 40 nM.

How did the Kd turn out when B5 was run?
The Kd was 42 nM.

With B6 as the binder, how does the Kd read?
Its Kd is 100 nM.

Which Kd does the source give for B7 here?
The Kd was 42 nM.

Each binder was assayed against T2, Ab0786 (assay: BLI +indinavir).
T2 construct: Fab, His-Tag, Avi-Tag; Ab0785 + HC I50M+S58N; also called LS2A R3M1 Fab; biotinylated-Ab0786

B8 was tested. Which Kd did it give?
The Kd was 79 nM.
